This note sets out measurements from patent publication US20170247475A1.

The term Kd denotes the concentration at which binding is half-saturated. Read a low Kd as tighter binding. As usually defined, the koff is the rate constant with which the complex falls apart. Low readings indicate a long-lived complex, high ones a short-lived complex.

Assay [1] addresses hAng2. Description: competition ELISA hAng2/hTie2-Fc; blocked: hTie2-Fc. (In an ELISA, binding on a coated surface is turned into a signal by an enzyme label.)
The target in assay [2] is mAng2. Description: competition ELISA, blocking of mAng2 binding to mTie2.
Sequence of mAng2 (chain, as listed by the source limits assumed): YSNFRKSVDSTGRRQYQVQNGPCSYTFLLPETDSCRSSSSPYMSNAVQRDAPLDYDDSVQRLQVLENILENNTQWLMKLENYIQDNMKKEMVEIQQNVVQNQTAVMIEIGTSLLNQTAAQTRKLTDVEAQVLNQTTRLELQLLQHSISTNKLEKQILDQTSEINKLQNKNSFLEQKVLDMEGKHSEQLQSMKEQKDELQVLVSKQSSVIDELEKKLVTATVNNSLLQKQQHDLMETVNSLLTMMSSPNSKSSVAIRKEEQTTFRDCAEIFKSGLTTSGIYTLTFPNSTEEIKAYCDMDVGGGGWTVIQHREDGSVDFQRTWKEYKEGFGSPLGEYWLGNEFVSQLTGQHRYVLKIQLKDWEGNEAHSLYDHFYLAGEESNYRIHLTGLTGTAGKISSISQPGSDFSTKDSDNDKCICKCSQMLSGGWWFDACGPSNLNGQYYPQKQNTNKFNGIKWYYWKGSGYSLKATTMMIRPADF
Assay [3] has as its target mAng2. Described as above. This is another data set of the same source.
In assay [4] the target is mAng2. The description is as above. The source holds these as a separate data set.
The target of assay [5] is cAng2 (cynomolgus monkey). Description: competition ELISA, blocking of cAng2 binding to cTie2.
The target in assay [6] is cAng2 (cynomolgus monkey). The assay is described as above. The source holds these as a separate data set.
In assay [7] the target is cAng2 (cynomolgus monkey). The description is as above. The source holds these as a separate data set.
In assay [8] the target is hAng2. Description: competition ELISA, blocking of hAng2 binding to hTie2.
Sequence of hAng2 (chain, as listed by the source limits assumed): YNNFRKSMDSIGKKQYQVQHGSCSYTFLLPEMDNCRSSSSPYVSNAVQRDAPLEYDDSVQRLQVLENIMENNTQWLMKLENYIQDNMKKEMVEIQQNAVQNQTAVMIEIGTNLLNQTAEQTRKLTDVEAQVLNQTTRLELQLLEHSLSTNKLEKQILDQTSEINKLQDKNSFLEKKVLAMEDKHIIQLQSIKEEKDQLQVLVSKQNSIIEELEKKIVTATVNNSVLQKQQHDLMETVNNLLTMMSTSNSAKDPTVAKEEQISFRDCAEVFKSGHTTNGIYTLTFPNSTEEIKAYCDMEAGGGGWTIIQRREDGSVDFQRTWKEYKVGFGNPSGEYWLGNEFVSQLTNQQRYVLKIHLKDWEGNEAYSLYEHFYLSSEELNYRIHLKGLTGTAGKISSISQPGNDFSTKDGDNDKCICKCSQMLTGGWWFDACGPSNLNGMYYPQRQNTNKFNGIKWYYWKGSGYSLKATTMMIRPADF
Assay [9] concerns the target hAng2. Description: competition ELISA hAng2/hTie2-Fc; blocked: hTie2-Fc. This is another data set of the same source.
Assay [10] addresses mAng2. Description: competition ELISA mAng2/mTie2-Fc; blocked: mTie2-Fc.
In assay [11] the target is hAng2. Description: competition ELISA, blocking of hAng2 binding to hTie2. This is another data set of the same source.
The target of assay [12] is hAng2. Description: competition ELISA, blocking of hAng2 binding to hTie2-Fc.
Assay [13] deals with mAng2. Description: competition ELISA, blocking of mAng2 binding to mTie2-Fc.
Assay [14] has as its target hAng2. Description: competition ELISA, blocking of hAng2 binding to hTie2-Fc. The source holds these as a separate data set.
Assay [15] addresses hAng2.
In assay [16] the target is mAng2. Description: competition ELISA mAng2/mTie2-Fc; blocked: mTie2-Fc. The source holds these as a separate data set.
For assay [17], the target named is hAng2. Description: competition ELISA, blocking of hAng2 binding to hTie2. This is another data set of the same source.
The target in assay [18] is cAng2 (cynomolgus monkey). Description: competition ELISA, blocking of cAng2 binding to cTie2-Fc.
The target of assay [19] is hAng2. Description: competition ELISA hAng2/hTie2-Fc; blocked: hTie2-Fc. The source holds these as a separate data set.
In assay [20] the target is hAng2. Description: competition ELISA, blocking of hAng2 binding to hTie2-Fc. The source holds these as a separate data set.
In assay [21] the target is human serum albumin (human) (UniProt P02768). Description: SPR, albumin on CM5 chip, multicycle kinetics. (SPR reads the build-up and loss of mass on a sensor chip optically.)
Assay [22] addresses cyno serum albumin (cyno). Description: SPR, albumin on CM5 chip, multicycle kinetics.
Assay [23] deals with mouse serum albumin (mouse) (UniProt P07724). Description: SPR, albumin on CM5 chip, multicycle kinetics.
Sequence of mouse serum albumin (mouse) (P07724 25-608 limits assumed): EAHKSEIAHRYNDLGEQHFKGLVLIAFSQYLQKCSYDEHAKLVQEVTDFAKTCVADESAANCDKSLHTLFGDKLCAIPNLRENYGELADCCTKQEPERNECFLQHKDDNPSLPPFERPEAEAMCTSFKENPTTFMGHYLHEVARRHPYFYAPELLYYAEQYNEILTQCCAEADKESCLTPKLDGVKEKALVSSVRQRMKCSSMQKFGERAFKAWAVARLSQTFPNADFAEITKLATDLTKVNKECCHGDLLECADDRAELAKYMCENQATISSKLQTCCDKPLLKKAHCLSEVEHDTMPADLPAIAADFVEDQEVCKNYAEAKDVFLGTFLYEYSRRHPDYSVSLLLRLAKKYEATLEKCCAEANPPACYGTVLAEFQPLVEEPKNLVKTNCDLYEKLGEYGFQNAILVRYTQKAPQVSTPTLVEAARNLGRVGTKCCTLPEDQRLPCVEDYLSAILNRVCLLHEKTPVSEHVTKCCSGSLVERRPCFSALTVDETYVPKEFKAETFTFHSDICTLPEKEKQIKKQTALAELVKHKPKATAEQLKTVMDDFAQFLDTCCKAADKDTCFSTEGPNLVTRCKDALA
The target of assay [24] is human serum albumin (human) (UniProt P02768). Description: SPR, albumin on chip, 1:1 interaction model.
The target in assay [25] is cyno serum albumin (cyno). Description: SPR, albumin on chip, 1:1 interaction model.
Sequence of cyno serum albumin (cyno) (A2V9Z4 25-608): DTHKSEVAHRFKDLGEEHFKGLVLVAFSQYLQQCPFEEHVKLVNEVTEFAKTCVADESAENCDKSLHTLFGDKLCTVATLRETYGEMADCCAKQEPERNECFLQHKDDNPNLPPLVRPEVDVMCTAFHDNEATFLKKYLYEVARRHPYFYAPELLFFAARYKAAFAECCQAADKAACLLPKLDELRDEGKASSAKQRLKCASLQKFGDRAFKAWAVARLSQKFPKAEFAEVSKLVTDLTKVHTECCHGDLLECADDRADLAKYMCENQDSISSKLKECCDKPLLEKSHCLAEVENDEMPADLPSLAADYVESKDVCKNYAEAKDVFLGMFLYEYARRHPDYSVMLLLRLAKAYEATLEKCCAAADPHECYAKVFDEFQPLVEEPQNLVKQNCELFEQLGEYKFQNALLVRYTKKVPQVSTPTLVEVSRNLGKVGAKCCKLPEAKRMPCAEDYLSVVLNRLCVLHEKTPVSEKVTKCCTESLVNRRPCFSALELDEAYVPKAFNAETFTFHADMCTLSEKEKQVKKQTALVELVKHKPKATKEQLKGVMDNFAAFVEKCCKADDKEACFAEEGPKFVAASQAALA
Assay [26] concerns the target mouse serum albumin (mouse) (UniProt P07724). Description: SPR, albumin on chip, 1:1 interaction model.

As to AMG386, the IC50 (read off the curve) with hAng2 [1] was 7 pM; in the assay with mAng2 [2], 3 pM; with mAng2 [3] it was 9 pM; with mAng2 [4], 1 pM; in [5], 3 pM; in assay [6], 4 pM. The IC50 (read off the curve) was 30 pM in [7]; 1 pM with hAng2 [8]; 4 pM in the assay with hAng2 [9]; 5 pM with mAng2 [10]; 6 pM with hAng2 [11]; 3 pM in the assay with hAng2 [12]. Further, the IC50 (read off the curve) with mAng2 [13] stood at 2 pM; with hAng2 [14], 2 pM; with mAng2 [16], 6 pM; with hAng2 [17], 3 pM; in assay [18], 10 pM; in the assay with hAng2 [19] it was 6 pM. Besides, the IC50 (read off the curve) with hAng2 [20] is 3 pM. Besides, the IC50 (read off the curve), hAng2 mediated HUVEC survival with hAng2 [15] came to 1000 pM.
In the case of ALB11 (VHH), the equilibrium dissociation constant (Kd) was 4000 pM in assay [21]; 4000 pM in assay [22]; 49000 pM in assay [23]; 4000 pM in assay [24]; 4000 pM in assay [25]; 51000 pM in assay [26]. In addition, the koff in assay [21] is 0.0018 s⁻¹; in [22] it was 0.0016 s⁻¹; in assay [23], 0.032 s⁻¹; in assay [24], 0.0019 s⁻¹; in assay [26], 0.03 s⁻¹.
